From the DeepSol protein solubility set

Assay: soluble on expression in E. coli; label from the status in PepcDB or PDB records
With “MVKESIPKEGENIKIQSYKHDGNIHRVWSETTILKGTEHVIIGGNDHTLVTESDGRTWITREPAIVYFHSEYWFNVICMFREDGIYYYCNLSSPFACDEEALKYIDYDLDIKVYPNGKYHLLDEDEYEQHMNQMNYPHDIDIILRRNVDILQQWIEQKKGPFAPDFIKVWKERYKKIRDY” the “soluble on expression in E. coli” value was “not soluble”.
For “MAHHHHHHMHTYTTQPCATSTSVPQLTRLSVSSSGHSPAVPTNWSIGRPTTLRCRDTDSDVHCNWGAIQGEDEEDKESLIGCATQVWRISAEVQMPLQCSHGTRATEEETLLGAPTSHCGDHLTNGRGVFASSPPIVWQPAPLPASFSASQIDLSGGGQDNAVLLSGAPVGSAEEETHNDNREVTRSNVIPATGDIAATESNDSFVGLEAAPRKGYARSNSGTPPRSDLGSPNNAANLQAHGRAANGVSAGVELVYRAAASETNSHHFGASLCANIGSGCRARLGIPAEWRDHMCAATPQGRGVWVQVPGQLRESEYPASTTTAEAVAARLAHISIHTSPTPKRLAFEEEELVERVSGGGSPTLIPAVRFVADGAARRGACNEASVAQGAGGSTEVGLLGRGAGGLSSSGMRWASVFGDSGHLELCSSRIPSGLQLLRSRKRCLDEMQATDTQERHADTLVTGGISDARDASYLVPDRVARMSLATPFENLEEDGDGDEEAVKRQRREEQRRMRLQHLLPASPNTMDDLIPAPARALGTAVAPCSSVSSSHVRSTVHGIQSTQDQQHQQDRTRNDDPASWSQVSSISYVTPASQSTSMGLWGVPGTLSQGHHGGAVVCSVGSGSQLLTPLPTNVMPQPSHKP”, the “soluble on expression in E. coli” value was “not soluble”.
With “MGSDKIHHHHHHMCSPTNFLYEPFSSDAVTQNYDQNLKCTKCGAYYSMACSLREQNVWTCLFCNQSNSNAELPLVPSNTYTLTSAKKEILSRRTIMIIDAICDPHELNYLVSILCNNYITRQQEPLSIITIQQSGHVILHNAVNHRRDAVFSINEFMTKYNLDKLNASYFEKKISEINQESYWFDKSTQGSLRKLLREICKIANKVNISSKRDKRCTGLALFVSSVLASQCSLSAYCHIVSFLNGPCTKGGGKVMSRERGESMRQNHHFESKSSQLQLSKSPTKFYKKMLEKFANQSLIYEFFIASLDQIGILEMSPLITSSMAVSQFDSFNDERFAMSFQKYLNLRDHNAIYNCHSKIMTAKNAIVVKDFPKYSLNPKNLSLPLEISLGHNSAEAPIQFQTTFENQTEKYIRIETLLLPKANRSFGAQNEIVFSMKKIASRIIDSFAYSSKHTKELMKQLFLLPNQIRGKDVDMVNLIQWCYHIYRSPILSVRNTSPDERYLFLHRIINASKDTCLSLCKPFIWSYSDLKHDWIVLDVPLTRAQILQDDKTTICVDGGSYLVLRRGKLLEKEGRELCCKLLNDLQRFPQPLYVETKTGGSQDRFLKSKIIPLDITDKETLGTEDMTFNEYFNLFTDLSGSK” the “soluble on expression in E. coli” value was “not soluble”.
For “MGSVSTGNAGSGTVGTSTTSRADVMTFQPSSLPVSYVGETYNVQVGVTGGVGPYGYRLTAGTLPPGLKFAGGALSGTPTKAGSYSFAIQATDANLSTRVQEYTMNVDALPPLALKPTLPPGEIRGETRIPVTIQAPRAVRAARLSWDLGKDVQVTRVQPADAGSVVFWQQRGSVLTVDLGFRTVPRPDARIALITVKPAKAVTLKADALGYEARDGSGKMLVDKKRPGSEPVKPAEQPGDPKVDPKAADQKATDQKATDPKTVDPKTVTPADTVEGGPLPSPALPTPSLPPTLPPVTTPPANTPPVPTPTPPANQPAPAPAPQPAPAPQPTPPSGTGGALEHHHHHH”, the “soluble on expression in E. coli” value was “not soluble”.
For “MASIWVGHRGTVRDYPDFSPSVDAEAIQKAIRGIGTDEKMLISILTERSNAQRQLIVKEYQAAYGKELKDDLKGDLSGHFEHLMVALVTPPAVFDAKQLKKSMKGAGTNEDALIEILTTRTSRQMKDISQAYYTVYKKSLGDDISSETSGDFRKALLTLADGRRDESLKVDEHLAKQDAQILYKAGENRWGTDEDKFTEILCLRSFPQLKLTFDEYRNISQKDIVDSIKGELSGHFEDLLLAIVNCVRNTPAFLAERLHRALKGIGTDEFTLNRIMVSRSEIDLLDIRTEFKKHYGYSLYSAIKSDTSGDYEITLLKICGGDD”, the “soluble on expression in E. coli” value was “soluble”.
For “MGKNLLREKKRLIRQKILFLTGENESWMKNPEIVKEVQRLSKQLESDLIADKRPLPSLDPDKLTKEKYQHFLDLGYQVGDIKKALGLGTTTFQNWRKANGIENKINRKQKKEESKLMKFNIHTASLLLPGTFGAEGKECITISKSGLALSGPVVRRLNKPEWIQLYLDESRLALFVIPCKATDEGARSCVNPKSKKKAGYRKSWSGSILEKVAKASKMDIENHRYHVEPESVEGYPTALGFDLTKAVKN”, the “soluble on expression in E. coli” value was “not soluble”.
For “MGSDKIHHHHHHMAKAKTQFVCSNCGYSTPRYLGRCPNCGEWNTLTEEHFDTKPDRKSRVSFAGKSAKPQRLKEVSLTKTPRVKTKLKEFNRVLGGGVVPGSLVLIGGDPGIGKSTLLLQVSGQLAETGGSVLYVTGEESASQVKMRADRLAVSSEDFYLYPETDMSNIRSTIESTHPEFVVIDSVQTMQEPDMDSAIGSVSQIREITAELLQIAKTNGITIFIVGHVTKGGAIAGPKILEHMVDTVLYFEGDLHHTYRILRAVKNRFGSTNELGIFEMRTGGLYEVANPSEIFLEERLKDATGSAIVVSMEGTRPILVEVQALVTPTVFGNAKRTASGLDHNRVSLIMAVLEKRASLMLQNQDAYLKAAGGVKLDEPAIDLAIAVSVASSYRDQQTRPSDCFVGEVGLTGEIRRVNRIESRVGEAAKLGFKRIFIPKNNLQGWDIPTGIEVIGVATLKEALQLALQQPNY”, the “soluble on expression in E. coli” value was “not soluble”.
For “MGSSHHHHHHSSGLVPRGSHMNKPIGVIDSGVGGLTVAKEIMRQLPNETIYYLGDIGRCPYGPRPGEQVKQYTVEIARKLMEFDIKMLVIACNTATAVALEYLQKTLSISVIGVIEPGARTAIMTTRNQNVLVLGTEGTIKSEAYRTHIKRINPHVEVHGVACPGFVPLVEQMRYSDPTITSIVIHQTLKRWRNSESDTVILGCTHYPLLYKPIYDYFGGKKTVISSGLETAREVSALLTFSNEHASYTEHPDHRFFATGDTTHITNIIKEWLNLSVNVERISVND”, the “soluble on expression in E. coli” value was “soluble”.
With “GPHMGGSMFSWLKKGGARGQRPEAIRTVTSSLKELYRTKLLPLEEHYRFGSFHSPALEDADFDGKPMVLVAGQYSTGKTSFIQYLLEQEVPGSRVGPEPTTDCFVAVMHGETEGTVPGNALVVDPEKPFRKLNPFGNTFLNRFMCAQLPNQVLESISIIDTPGILSGAKQRVSRGYDFPAVLRWFAERVDLIILLFDAHKLEISDEFSEAIGALRGHEDKIRVVLNKADMVETQQLMRVYGALMWALGKVVGTPEVLRVYIGSFWSQPLLVPDNRRLFELEEQDLFRDIQGLPRHAALRKLNDLVKRARLVRVHAYIISYLKKEMPTVFGKENKKKQLILKLPVIFAKIQLEHHISPGDFPDCQKMQELLMAHDFTKFHSLKPKLLEALDDMLAQDIAKLMPLLRQEELESVEAGVAGGAFEGTRMGPFVERGPDEAIEDGEEGSEDDAEWVVTKDKSKYDEIFYNLAPADGKLSGSKAKTWMVGTKLPNSVLGRIWKLSDVDRDGMLDDEEFALASHLIEAKLEGHGLPTNLPRRLVPPSKRRQKGSAE” the “soluble on expression in E. coli” value was “soluble”.
For “MAYSNDEIVKGIDGIYSNENPNSNIKYVINESRFNASQLCKTKKGIKQMSDEWLLEDGGKRILEAVNGDRKLQKDIIRVLNKGQVEKVLSRVGKDGKVTTYRLNSNGEIIGFWP”, the “soluble on expression in E. coli” value was “not soluble”.
In the case of “MYVSSPTLTDKVSKMICQDILTGELKPGQKLVVAELKEKYNVGASPIREALVQLSWSKYVKLAPQKGCWVAPVCKHELNDLYESLRMTASFLLKKAIMTGDENWELDVLTSYHKLSRVNLDQGFCWREWEERHYHFLEALLEGANSHNLFTFFRDILNQIKRYHYFAMQVLGTNNQGHCNIDEQEMIMKLSLSKNSDDAVQFLDRYLLKSLQCVETAIDNPL”, the “soluble on expression in E. coli” value was “soluble”.
For “VGGHEKVISLGFDASKGFHTYAFDWQPGYIKWYVDGVLKHTATANIPSTPGKIMMNLWNGTGVDDWLGSYNGANPLYAEYDWVKYTSNQTGGSFFEPFNSYNSGTWEKADGYSNGGVFNCTWRANNVNFTNDGKLKLGLTSSAYNKFDCAEYRSTNIYGYGLYEVSMKPAKNTGIVSSFFTYTGPAHGTQWDEIDIEFLGKDTTKVQFNYYTNG”, the “soluble on expression in E. coli” value was “soluble”.
With “LGKLDVLKVSAPWLASLRDELDQTCFLAVWGNKGPTVVYVEPSMGAVTLVTQIGSVLPLLSSSTGLVFDSFLAQGETALLREQETPRLSADQLHEVERHIKQIRATGVHQIQGMLMPGINAASSPLFAMGNKLVGVITVVGPGSVLNDKAQGQAARRLLETATAISERMGGSQLRS” the “soluble on expression in E. coli” value was “soluble”.
For “MQNTTHDNVILELTVRNHPGVMTHVCGLFARRAFNVEGILCLPIQDSDKSHIWLLVNDDQRLEQMISQIDKLEDVVKVQRNQSDPTMFNKIAVFFQ”, the “soluble on expression in E. coli” value was “not soluble”.
With “MSLANMHQEPDGSWMVEGQTTVRELNRVLKWGLPANGPRTLNGLILEHLESIPEAGTSLLIQGWPVTILQTQDNRVKMARVQPHHKRRRQPRRHEGHHHHHH” the “soluble on expression in E. coli” value was “soluble”.
For “MKYRSVFDIIGPVMIGPSSSHTAGAARMGQVARQLFRHEPERVSISLYGSFAKTYRGHGTDVALIGGILGFETDDLRIPEALEIAKEREIEVEFIEEDANAPHPNTARIRLYKGEEEIEVVACSIGGGKIEVVELNGFDLQLSGTSPALLIVNNDRFGAIAAVASILAKHEINISTMSVSRKEKGRRALMVIETDEILADEVIEEIKAQQNICQVTIME”, the “soluble on expression in E. coli” value was “not soluble”.
For “MFTGFGAASFSAPAKAAAQTNTLSENTNQSAAELVKNLYNTAYKGEMPQQAQGLTINKSTKGDVHAAFGEPERPVGGDNRFDLYHWNMGQPGYGFSYHKDMTISEIRYFGTGVERQLNLGGVTPEVLQKQLGPVNRVLTVPFTDEIDYVYDTGRYELHFVIGTDQTADHVNLKAKLEHHHHHH”, the “soluble on expression in E. coli” value was “soluble”.
In the case of “MSLSIKMRLGKEFLIDDLKRIEAMRNHLADNIMLMADANEAWRIDQAVIAFKEIEKFNLVWLEEPIKPDDFKGYSYLRSLGKIPIAAGENLHNLAEFNQLIDVNGVDFLEPDLTTCGGITPFMKVAKLAEVNNLPVCSHGVHELHVHLLASCPNASYLEFHAWRIDEFIDSPLKVLNGYTEAPDLPGHGINFDFEKVEKYNVGEGHHHHHH”, the “soluble on expression in E. coli” value was “not soluble”.
For “MNKLLSYYQKELAFLRKQGIEFAKKYPKVARRLGYNQGGSEDPHVQRLTESFAFLSSKIHQRLDEDLPELMEALLRNLAPQFLYNYPSSCIVSFEPDRKSSGITSTYRVPSGTSLYSRYKYKTICQFRTVYPLTIVPATVNKARIHYDNSSSLWKIELNLDVFDGANFSLDFVRFYLNGPATVTGIIYTLLCDEVDNIVLQRNNDVLYDISANISGAGFYESEVTLPQKGNVSYIHNLILDYFSFPERFNFIDIEFDSGIELCSGDSVRIEITLKSSAEKYEPDRIERNVSERLFKVNCSPVVNLFEKKTEPLRLSDGQDEYQVNTDLYSRNEVLIWDINKVTLHRYENDIVKQFPLKNLFGLEHSVIKQSCNIFWHSSCYRSSSERGNFEESVYIRLSDDGGAQSCIMTGDVLSIDAICTNGNIPSSINNGDPDGDFDCDIDIAQLRITALNRPSRMLPAMALKGMNWRIVSQLSLNFVLLSGTDGAMKLREMLSIYNYNNNHSISIFIEWIKELQITPVSSRLPGIYPPVTARGIDITVTLSKDADMHPECFMFCSFLDHFLGLHAPVNSFTRMITVIEHEEHTRRVWPIRAGKLTWL”, the “soluble on expression in E. coli” value was “not soluble”.
With “SNAGMTGFVINTRRAPFDDWRLREALLLAFNFEFINDTVTGGVMPRITSYFSGTDLAYRPGTASGREAELLAPFAADLPPGTLEGYALPQGDGTARNRTNLRRAAQFLEQAGFRIEQGQLLGPDGAPLALRFLLRQGDSDMQTVLEIYTRALERLGIAAQIEKVDNAQYTARVAELDFDLTPFRRDLSLSPGNEQRLYWGSHSAGQPGTRNLMGAASPAIDAMIDRMLAATTEDELTAATRALDRVLTAGRYVIPIWR” the “soluble on expression in E. coli” value was “soluble”.
